Assay results: article PMC10397247

Key:
Assay in all cases: two-hybrid library CCNG1;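 also: natural log of median RNA to DNA barcode read ratio; higher means stronger binding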
[1] = biological target: T1, O3-bP
T1 chain: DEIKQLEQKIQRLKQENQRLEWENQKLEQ

[2] = biological target: T2, O6-bP
T2 chain: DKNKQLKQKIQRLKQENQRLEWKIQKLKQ

[3] = biological target: T3, O9-bP
T3 chain: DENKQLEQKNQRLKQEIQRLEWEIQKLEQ

[4] = biological target: T4, O5-bP
T4 chain: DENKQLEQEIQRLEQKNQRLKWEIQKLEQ

[5] = biological target: T5, O4-bP
T5 chain: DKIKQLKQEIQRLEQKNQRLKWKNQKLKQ

[6] = biological target: T6, O8-bP
T6 chain: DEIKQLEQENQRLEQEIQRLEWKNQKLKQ

[7] = biological target: T7, O7-bP
T7 chain: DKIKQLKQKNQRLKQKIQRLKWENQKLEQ

[8] = biological target: T8, P9A-bP
T8 chain: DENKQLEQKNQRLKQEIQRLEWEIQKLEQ

[9] = biological target: T9, P8A-bP
T9 chain: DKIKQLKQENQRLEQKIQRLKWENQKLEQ

[10] = biological target: T10, P7A-bP
T10 chain: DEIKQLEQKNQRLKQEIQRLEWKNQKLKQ

[11] = biological target: T11, P9bH1
T11 chain: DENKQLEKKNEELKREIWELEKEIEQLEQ

[12] = biological target: T12, P8bH1
T12 chain: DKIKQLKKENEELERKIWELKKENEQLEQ

[13] = biological target: T13, P7bH1
T13 chain: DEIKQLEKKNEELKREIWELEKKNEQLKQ

Binder: DEIKQLEQKIQRLKQENQRLEWENQKLEQ [O3-bP]
- interaction score [1]: -0.797
- interaction score [2]: -0.828
- interaction score [3]: -1.8
- interaction score [4]: -1.53
- interaction score [5]: 1.15
- interaction score [6]: -0.905
- interaction score [7]: -1.61

Binder: DEIKQLEQKNQRLKQEIQRLEWKNQKLKQ [P7A-bP]
- interaction score [8]: -0.571
- interaction score [9]: 1.1
- interaction score [10]: -1.33

Binder: DKIKQLKQENQRLEQKIQRLKWENQKLEQ [P8A-bP]
- interaction score [8]: 0
- interaction score [9]: -0.396

Binder: DEIKQLEKKNEELKREIWELEKKNEQLKQ [P7bH1]
- interaction score [11]: -0.3
- interaction score [12]: 1.89
- interaction score [13]: -0.0541

Binder: DKIKQLKKENEELERKIWELKKENEQLEQ [P8bH1]
- interaction score [11]: -0.01
- interaction score [12]: -0.114
